According to publication PMC6265326, “Structure of the hyperosmolality-gated calcium-permeable channel OSCA1.2” (Nature Communications, 2018):

Target: the molecule itself
Assay: cryo-EM structure; single-particle cryo-EM of purified AtOSCA1.2 in 25 mM HEPES pH 7.4, 150 mM NaCl, 0.1% digitonin; 3.68 Å

B1: OSCA1.2 from Arabidopsis thaliana (AtOSCA1.2) (natural protein, UniProt Q5XEZ5 1-771, looked up)
chain: MATLQDIGVSAGINILSAFVFFIIFAVLRLQPFNDRVYFSKWYLKGLRSSPARGGAFAQRFVNLDFRSYMKFLNWMPEALKMPEPELIDHAGLDSVVYLRIYWLGLKIFTPIAVLAWAVLVPVNWTNNTLEMAKQLRNVTSSDIDKLSVSNIPEYSMRFWTHIVMAYAFTIWTCYVLMKEYETIANMRLQFVASEARRPDQFTVLVRNVPPDADESVSELVEHFFLVNHPDHYLTHQVVCNANKLADLVKKKKKLQNWLDYYQLKYARNNSQRIMVKLGFLGLWGQKVDAIEHYIAEIDKISKEISKEREEVVNDPKAIMPAAFVSFKTRWAAAVCAQTQQTRNPTQWLTEWAPEPRDVFWSNLAIPYVSLTVRRLIMHVAFFFLTFFFIVPIAFVQSLATIEGIVKAAPFLKFIVDDKFMKSVIQGFLPGIALKLFLAFLPSILMIMSKFEGFTSISSLERRAAFRYYIFNLVNVFLASVIAGAAFEQLNSFLNQSANQIPKTIGVAIPMKATFFITYIMVDGWAGVAGEILMLKPLIMFHLKNAFLVKTDKDREEAMDPGSIGFNTGEPRIQLYFLLGLVYAPVTPMLLPFILVFFALAYIVYRHQIINVYNQEYESAAAFWPDVHGRVIAALVISQLLLMGLLGTKHAALAAPFLIALPVLTIGFHHFCKGRYEPAFIRYPLQEAMMKDTLETAREPNLNLKGYLQNAYVHPVFKGDEDDYDIDDKLGKFEDEAIIVPTKRQSRRNTPAPSIISGDDSPSLPFSGKLV
notes: OSCA1.2 (alias CSC1), Arabidopsis thaliana, full length, 771 amino acids; Homodimer in the cryo-EM structure; 683 residues were modelled and the 54 carboxyl-terminal residues are missing from the model; also called CSC1; source: Sf-9 insect cells (baculovirus), purified (digitonin, Ni-NTA, Superose 6 SEC)
Question: With B1 as the protein, how does the “stoichiometry N” value read?
Answer: The value was 2.
